Experimental data: US20200308286A1, “METHODS, COMPOSITIONS, AND KITS FOR TREATMENT OF CANCER” (Fusion Pharmaceuticals, Inc., priority 2017, published 2020)

How the values were obtained:
[1] = test system: human UM-UC-1 bladder cancer cell line; test: Conditional survival study (tumor growth delay) in UM-UC-1 bladder cancer xenograft mice; format: in vivo; conditions: administered as single agent
Procedure: Efficacy was assessed using tumor growth delay in a conditional survival study.

other FGFRs = conditions: cited from earlier work
[2] = test system: cancers expressing both wild-type and genetically activated forms of FGFR3; conditions: Du 2011; cited from earlier work
[3] = Phase 1b/2 study of B-701 and docetaxel in advanced UCC, Cohort 1: safety; conditions: Cohort 1, n=19, B-701 given with docetaxel
Procedure: Docetaxel was administered intravenously over approximately 60 minutes at a dosage of 75 mg/m^2. […] Administration was carried out every 3 weeks (q3w). […] The primary objective was to evaluate progression-free survival (PFS) and safety. Secondary objectives included evaluation of overall response rate (ORR), duration of response (DOR), disease control rate (DCR), and overall survival (OS). Each of these objectives was evaluated for correlations with FGFR3 expression and/or FGFR3 mutations/fusions.

[4] = resolved after docetaxel was discontinued

Nc1ccn([C@@H]2O[C@H](CO)[C@@H](O)C2(F)F)c(=O)n1 [gemcitabine]
survival of tumor bearing UM-UC-1 xenograft mice [1]: significantly extended survival

B-701: human FGFR3 antagonistic monoclonal antibody MFGR1877S (CAS No. 1312305-12-6), human IgG1 backbone; heavy chain SEQ ID NO:9, light chain SEQ ID NO:10
survival of tumor bearing UM-UC-1 xenograft mice [1]: significantly extended survival | cross-reactivity with other FGFRs (other FGFRs): no cross-reactivity | efficacy [2]: efficacious | Grade 3 or higher AE related to B-701: Colitis, # of subjects [3]: 1 subjects | Grade 3 or higher AE related to B-701: Colitis, % of subjects [3]: (5%) | Grade 3 or higher AE related to B-701: DIC, # of subjects [3]: 1 subjects | Grade 3 or higher AE related to B-701: DIC, % of subjects [3]: (5%) | Grade 3 or higher AE related to B-701: Decreased WBCs, # of subjects [3]: 2 subjects | Grade 3 or higher AE related to B-701: Decreased WBCs, % of subjects [3]: (11%) | Grade 3 or higher AE related to B-701: Decreased lymphocytes, # of subjects [3]: 1 subjects | Grade 3 or higher AE related to B-701: Decreased lymphocytes, % of subjects [3]: (5%) | Grade 3 or higher AE related to B-701: Decreased neutrophil count, # of subjects [3]: 4 subjects | Grade 3 or higher AE related to B-701: Decreased neutrophil count, % of subjects [3]: (21%) | Grade 3 or higher AE related to B-701: Diarrhea, # of subjects [3]: 1 subjects | Grade 3 or higher AE related to B-701: Diarrhea, % of subjects [3]: (5%) | Grade 3 or higher AE related to B-701: Fatigue, # of subjects [3]: 1 subjects | Grade 3 or higher AE related to B-701: Fatigue, % of subjects [3]: (5%) | Grade 3 or higher AE related to B-701: Hyponatremia, # of subjects [3]: 1 subjects | Grade 3 or higher AE related to B-701: Hyponatremia, % of subjects [3]: (5%) | Grade 3 or higher AE related to B-701: Thrombocytopenia, # of subjects [3]: 1 subjects | Grade 3 or higher AE related to B-701: Thrombocytopenia, % of subjects [3]: (5%) | Grade 3 or higher AE related to B-701: ALT elevation, # of subjects [3, 4]: 1 subjects | Grade 3 or higher AE related to B-701: ALT elevation, % of subjects [3, 4]: (5%) | Grade 3 or higher AE related to B-701: AST elevation, # of subjects [3, 4]: 1 subjects | Grade 3 or higher AE related to B-701: AST elevation, % of subjects [3, 4]: (5%)

CC(=O)O[C@H]1C(=O)[C@@]2(C)[C@H]([C@H](OC(=O)c3ccccc3)[C@]3(O)C[C@H](OC(=O)[C@H](O)[C@@H](NC(=O)c4ccccc4)c4ccccc4)C(C)=C1C3(C)C)[C@]1(OC(C)=O)CO[C@@H]1C[C@@H]2O [paclitaxel]
survival of tumor bearing UM-UC-1 xenograft mice [1]: significantly extended survival
